Tests used:
[1] = Zeta potential measurement; format: physicochemical; conditions: FIG. 11: SUVs of HSPC and DSG-PMPC
[2] = Micelle formation in water by dynamic light scattering; format: physicochemical; conditions: 20 mg/ml in pure water (pH 5), one day

Substance | net charge (zeta potential) [1] | micelle formation [2]
1,2-distearoyl-sn-glycerol-poly((O-(2-methacryloyloxyethyl) phosphorylcholine) [DSG-PMPC] | zero | 
distearoylphosphatidylethanolamine-substituted poly(O-(2-methacryloyloxyethyl)phosphorylcholine) [DSPE-PMPC] |  | formed micelles
